Assay results published in PMC6513524, “Production and characterization of novel ssRNA bacteriophage virus-like particles from metagenomic sequencing data” (Journal of Nanobiotechnology, 2019).

Legend:
[1] = target: AVE018 coat protein (ssRNA phage AVE018 (metagenomic sequence)); assay: non-reducing SDS-PAGE; purified VLPs in 20 mM Tris-HCl pH 8.0, 50% glycerol mixed with Laemmli buffer with or without 5% 2-mercaptoethanol, 10 min at 95 °C, 15% gel; disulfide-linked CP oligomers
[2] = target: NFZC01007443 coat protein (ssRNA phage NFZC01007443 (metagenomic sequence)); assay: as above

| stoichiometry N [1] | stoichiometry N [2] | Substance |
| --- | --- | --- |
| 2 |  | AVE018 coat protein (natural protein) |
|  | 5 | NFZC01007443 coat protein (natural protein) |
